Assay [1] has as its target T1, full length human SIRPβ on cell membranes (HEK293-SIRPβ cells; 293F cells expressing human SIRPβ) (human, UniProt O00241 30-398).
T1 construct: whole, on cells; also called cell surface human SIRPβ
Kind of assay: cell based binding FACS on HEK293-SIRPβ cells, MFI; plateau at MFI about 1300.

Assay [2] concerns the target T2, recombinant human SIRPα-Fc protein (human, biotin-labeled (sites not given)).
T2 construct: also called biotin-labeled human SIRPα-Fc protein
Kind of assay: capture ELISA, antibody captured on anti-mouse IgG F(ab')2, biotin-labeled human SIRPα-Fc in solution, OD(450-630). Background: ELISA stands for enzyme-linked immunosorbent assay.

Assay [3] has as its target T3, cynomolgus SIRPα-his protein (cynomolgus).
T3 construct: also called Cyno SIRPα-his; monkey SIRPα
T3 chain: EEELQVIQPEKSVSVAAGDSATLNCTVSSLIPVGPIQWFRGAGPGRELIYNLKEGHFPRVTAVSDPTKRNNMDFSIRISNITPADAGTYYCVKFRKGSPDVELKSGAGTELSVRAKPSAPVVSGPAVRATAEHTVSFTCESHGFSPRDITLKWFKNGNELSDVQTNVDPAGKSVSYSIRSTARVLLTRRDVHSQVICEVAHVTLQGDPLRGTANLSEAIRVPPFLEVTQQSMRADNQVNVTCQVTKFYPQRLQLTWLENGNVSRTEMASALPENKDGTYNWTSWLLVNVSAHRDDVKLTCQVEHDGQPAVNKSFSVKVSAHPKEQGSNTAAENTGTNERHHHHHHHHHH
Kind of assay: indirect ELISA on coated cynomolgus SIRPα-his, OD(450-630).

Assay [4] addresses T4, full length human SIRPα on cell membranes (HEK293-SIRPα cells; 293F-SIRPα cells) (human, UniProt P78324 31-504).
T4 construct: whole, on cells; also called cell surface human SIRPα; cell surface SIRPα
Kind of assay: cell based blocking FACS on 293F-SIRPα cells; blocked ligand: biotin-labeled human CD47-Fc, MFI.

The target in assay [5] is T5, human SIRPα-his protein (human, UniProt P78324 31-370). Kind of assay: competitive ELISA on coated human SIRPα-his; blocked ligand: biotin-labeled human CD47-his, OD(450-630).
T5 sequence (P78324 other isoform, or with tags, fused parts or gaps limits assumed): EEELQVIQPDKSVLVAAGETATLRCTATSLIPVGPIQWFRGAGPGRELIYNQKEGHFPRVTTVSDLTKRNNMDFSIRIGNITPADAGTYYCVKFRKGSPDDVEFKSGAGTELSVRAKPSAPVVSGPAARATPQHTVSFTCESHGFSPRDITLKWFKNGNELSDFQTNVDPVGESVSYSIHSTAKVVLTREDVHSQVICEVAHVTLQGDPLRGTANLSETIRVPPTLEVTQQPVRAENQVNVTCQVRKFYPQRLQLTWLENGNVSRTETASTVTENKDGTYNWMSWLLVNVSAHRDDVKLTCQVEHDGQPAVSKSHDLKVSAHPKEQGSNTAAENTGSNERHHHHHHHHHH
In assay [6] the target is T4, full length human SIRPα on cell …. Kind of assay: cell based binding FACS on HEK293-SIRPα cells, MFI.
Assay [7] has as its target human SIRPα-isoform 2-his protein (human). Kind of assay: indirect ELISA on coated human SIRPα-isoform 2-his, OD(450-630).
In assay [8] the target is T6, full length human SIRPγ endogenously expressed on Jurkat cells (human, UniProt Q9P1W8 29-387).
T6 construct: whole, on cells; also called human SIRPγ expressed on Jurkat cells
T6 sequence (Q9P1W8 29-387): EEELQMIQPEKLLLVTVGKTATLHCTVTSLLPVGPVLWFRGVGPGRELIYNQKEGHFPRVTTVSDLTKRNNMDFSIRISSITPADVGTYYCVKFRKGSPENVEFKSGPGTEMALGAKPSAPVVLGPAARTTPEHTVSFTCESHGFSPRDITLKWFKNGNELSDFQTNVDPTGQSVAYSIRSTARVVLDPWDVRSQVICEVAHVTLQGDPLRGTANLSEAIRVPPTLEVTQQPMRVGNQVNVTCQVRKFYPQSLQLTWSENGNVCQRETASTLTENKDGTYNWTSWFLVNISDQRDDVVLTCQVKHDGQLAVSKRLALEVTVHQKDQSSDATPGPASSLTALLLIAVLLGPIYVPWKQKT
Kind of assay: cell based binding FACS on Jurkat cells (endogenous human SIRPγ), MFI; curve flat near MFI 0 (see non_binding).

Assay [9] has as its target human SIRPα-V8-his protein (human, UniProt P78324 31-370, limits assumed). Kind of assay: indirect ELISA on coated human SIRPα-V8-his, OD(450-630).
Assay [10] addresses T4, full length human SIRPα on cell …. Kind of assay: cell based blocking FACS on 293F-SIRPα cells; blocked ligand: human CD47 protein (CD47-Fc), MFI.
For assay [11], the target named is T7, mouse SIRPα-his (mouse, UniProt P97797 35-363, limits assumed).
T7 chain: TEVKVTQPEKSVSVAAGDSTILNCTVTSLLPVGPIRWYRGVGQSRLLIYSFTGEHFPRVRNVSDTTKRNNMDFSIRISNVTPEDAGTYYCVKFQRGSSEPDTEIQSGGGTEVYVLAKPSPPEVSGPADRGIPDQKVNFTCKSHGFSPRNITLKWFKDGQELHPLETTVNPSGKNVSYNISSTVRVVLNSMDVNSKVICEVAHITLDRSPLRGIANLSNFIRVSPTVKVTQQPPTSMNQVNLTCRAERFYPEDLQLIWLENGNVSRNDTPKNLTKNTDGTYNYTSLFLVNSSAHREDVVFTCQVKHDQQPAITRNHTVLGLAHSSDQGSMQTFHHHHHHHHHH
Kind of assay: indirect ELISA on coated mouse SIRPα-his, OD(450-630).

The target in assay [12] is T4, full length human SIRPα on cell …. Kind of assay: cell based binding FACS on 293F cells expressing human SIRPα, MFI.
Assay [13] deals with human SIRPβ-his protein (human, UniProt O00241 30-371). Kind of assay: SPR (Biacore T200), antibody captured on Protein A chip, human SIRPβ-his flowed. (SPR reads the build-up and loss of mass on a sensor chip optically.)
human SIRPβ-his protein, sequence (O00241 other isoform, or with tags, fused parts or gaps limits assumed): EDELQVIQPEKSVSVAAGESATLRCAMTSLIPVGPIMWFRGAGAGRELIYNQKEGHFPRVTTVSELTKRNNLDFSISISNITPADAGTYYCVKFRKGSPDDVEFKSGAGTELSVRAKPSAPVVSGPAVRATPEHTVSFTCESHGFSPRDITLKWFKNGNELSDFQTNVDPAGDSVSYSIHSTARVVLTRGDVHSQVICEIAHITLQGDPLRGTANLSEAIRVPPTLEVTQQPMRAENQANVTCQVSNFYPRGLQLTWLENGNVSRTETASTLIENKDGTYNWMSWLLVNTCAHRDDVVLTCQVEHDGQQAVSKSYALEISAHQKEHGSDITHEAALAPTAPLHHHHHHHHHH
Assay [14] concerns the target T8, human FcRn protein (Cat #FCM-H5286, Acro biosystems Inc.) (human, UniProt P55899 24-297; P61769 21-119). Kind of assay: SPR (Biacore); human FcRn covalently linked to CM5 chip, antibody flowed from 62.5 µg/ml; pH 6.0.
Assay [15] addresses T1, full length human SIRPβ on cell …. Kind of assay: cell based binding FACS on 293F cells expressing human SIRPβ, MFI.
In assay [16] the target is T3, cynomolgus SIRPα-his protein. Kind of assay: SPR (Biacore T200); antibody captured on Protein A chip, cynomolgus SIRPα-his flowed from 200 nM; 1:1 Langmuir fit.
For assay [17], the target named is T5, human SIRPα-his protein. Kind of assay: SPR (Biacore T200); antibody captured on Protein A chip, human SIRPα-his flowed from 200 nM; 1:1 Langmuir fit.
Assay [18] concerns the target human SIRPα-isoform 2-his protein (human). Kind of assay: indirect ELISA on coated human SIRPα-isoform 2-his, OD(450-630). The source holds these as a separate data set.
The target in assay [19] is T8, human FcRn protein (Cat #FCM-H5286, …). Kind of assay: SPR (Biacore); human FcRn covalently linked to CM5 chip, antibody flowed from 62.5 µg/ml; pH 7.4.
Assay [20] addresses human SIRPα protein (soluble, used on 293F-CD47 cells) (human, UniProt P78324 31-370, limits assumed). Kind of assay: cell based blocking FACS on 293F-CD47 cells; soluble human SIRPα protein blocked from binding cell surface human CD47, MFI.
The target of assay [21] is human SIRPγ-his protein (human, UniProt Q9P1W8 29-360, limits assumed). Kind of assay: SPR (Biacore T200), antibody captured on Protein A chip, human SIRPγ-his flowed.
human SIRPγ-his protein, sequence (Q9P1W8 29-360 limits assumed): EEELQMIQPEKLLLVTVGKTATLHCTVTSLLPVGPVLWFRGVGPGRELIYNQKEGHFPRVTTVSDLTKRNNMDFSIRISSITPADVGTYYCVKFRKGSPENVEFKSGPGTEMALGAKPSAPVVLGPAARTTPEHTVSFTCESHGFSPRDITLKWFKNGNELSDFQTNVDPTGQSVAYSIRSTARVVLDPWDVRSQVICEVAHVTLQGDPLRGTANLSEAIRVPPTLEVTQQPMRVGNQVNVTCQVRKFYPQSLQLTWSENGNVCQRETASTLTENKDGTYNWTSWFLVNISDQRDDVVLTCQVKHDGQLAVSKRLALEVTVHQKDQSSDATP
Assay [22] addresses T3, cynomolgus SIRPα-his protein. Kind of assay: indirect ELISA on coated cynomolgus SIRPα-his, OD(450-630).
Assay [23] has as its target T6, full length human SIRPγ endogenously …. Kind of assay: cell based binding FACS on Jurkat cells (endogenous human SIRPγ), MFI.
Assay [24] deals with T8, human FcRn protein (Cat #FCM-H5286, …). Kind of assay: SPR (Biacore); human FcRn covalently linked to CM5 chip, antibody flowed from 62.5 µg/ml; pH 6.0; pH 6.0.

Where two headings read alike, the source gives them in different places.

T4 sequence (P78324 31-504): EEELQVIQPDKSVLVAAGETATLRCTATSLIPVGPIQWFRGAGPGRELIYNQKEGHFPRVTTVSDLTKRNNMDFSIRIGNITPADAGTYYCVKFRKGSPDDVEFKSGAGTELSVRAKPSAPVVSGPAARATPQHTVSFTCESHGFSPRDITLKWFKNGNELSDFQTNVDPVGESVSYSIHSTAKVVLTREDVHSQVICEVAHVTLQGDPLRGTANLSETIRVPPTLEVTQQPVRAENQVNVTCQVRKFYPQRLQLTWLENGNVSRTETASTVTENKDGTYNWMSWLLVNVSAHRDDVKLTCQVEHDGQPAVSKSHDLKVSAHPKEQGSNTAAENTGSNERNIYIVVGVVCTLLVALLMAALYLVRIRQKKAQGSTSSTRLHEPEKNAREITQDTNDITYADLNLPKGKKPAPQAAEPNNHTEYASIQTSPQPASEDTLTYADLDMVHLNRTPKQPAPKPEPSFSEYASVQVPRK
T1 sequence (O00241 30-398): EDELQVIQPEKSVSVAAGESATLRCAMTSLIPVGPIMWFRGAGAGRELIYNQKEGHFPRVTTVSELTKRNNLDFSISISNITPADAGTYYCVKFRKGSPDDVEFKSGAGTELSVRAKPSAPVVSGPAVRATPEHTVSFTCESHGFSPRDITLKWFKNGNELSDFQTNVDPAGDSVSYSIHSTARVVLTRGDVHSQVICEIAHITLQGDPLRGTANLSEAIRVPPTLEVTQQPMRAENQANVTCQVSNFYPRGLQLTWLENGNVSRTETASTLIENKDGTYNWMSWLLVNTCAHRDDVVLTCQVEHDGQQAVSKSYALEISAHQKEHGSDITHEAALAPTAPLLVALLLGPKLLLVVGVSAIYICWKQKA
T8 sequence (P55899 24-297 limits assumed, chain 1 of 2): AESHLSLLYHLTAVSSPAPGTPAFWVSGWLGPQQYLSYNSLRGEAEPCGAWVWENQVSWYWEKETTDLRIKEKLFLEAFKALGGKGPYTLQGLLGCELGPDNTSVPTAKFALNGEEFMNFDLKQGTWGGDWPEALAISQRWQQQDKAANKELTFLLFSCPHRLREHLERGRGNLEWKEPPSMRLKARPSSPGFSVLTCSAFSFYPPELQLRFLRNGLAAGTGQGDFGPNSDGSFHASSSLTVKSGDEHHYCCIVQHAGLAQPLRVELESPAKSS
T8 sequence (P61769 21-119 limits assumed, chain 2 of 2): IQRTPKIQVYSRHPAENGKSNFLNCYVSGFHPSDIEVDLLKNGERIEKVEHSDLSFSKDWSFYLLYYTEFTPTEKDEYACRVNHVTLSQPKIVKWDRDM
human SIRPα-isoform 2-his protein (human), sequence (chain, as listed by the source limits assumed): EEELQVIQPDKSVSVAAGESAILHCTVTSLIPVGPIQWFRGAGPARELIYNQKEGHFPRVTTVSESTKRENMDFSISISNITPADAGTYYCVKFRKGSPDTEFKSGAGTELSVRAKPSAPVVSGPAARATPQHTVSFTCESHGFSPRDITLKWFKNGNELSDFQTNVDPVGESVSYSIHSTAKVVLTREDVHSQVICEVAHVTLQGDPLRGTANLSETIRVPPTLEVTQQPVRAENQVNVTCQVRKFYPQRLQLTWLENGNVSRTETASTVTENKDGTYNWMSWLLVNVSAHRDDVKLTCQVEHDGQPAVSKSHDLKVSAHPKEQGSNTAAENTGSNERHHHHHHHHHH
human SIRPα protein (soluble, used on 293F-CD47 cells), sequence (P78324 31-370 limits assumed): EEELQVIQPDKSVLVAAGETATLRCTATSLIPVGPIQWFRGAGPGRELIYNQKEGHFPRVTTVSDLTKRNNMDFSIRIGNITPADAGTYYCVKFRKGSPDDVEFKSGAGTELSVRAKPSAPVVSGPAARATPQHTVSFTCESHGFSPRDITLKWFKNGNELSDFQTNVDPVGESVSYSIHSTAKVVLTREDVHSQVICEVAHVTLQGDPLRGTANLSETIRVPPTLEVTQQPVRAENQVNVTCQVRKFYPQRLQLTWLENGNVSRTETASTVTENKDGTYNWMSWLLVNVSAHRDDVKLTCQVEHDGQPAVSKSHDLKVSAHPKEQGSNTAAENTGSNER
human SIRPα-V8-his protein, sequence (P78324 other isoform, or with tags, fused parts or gaps limits assumed): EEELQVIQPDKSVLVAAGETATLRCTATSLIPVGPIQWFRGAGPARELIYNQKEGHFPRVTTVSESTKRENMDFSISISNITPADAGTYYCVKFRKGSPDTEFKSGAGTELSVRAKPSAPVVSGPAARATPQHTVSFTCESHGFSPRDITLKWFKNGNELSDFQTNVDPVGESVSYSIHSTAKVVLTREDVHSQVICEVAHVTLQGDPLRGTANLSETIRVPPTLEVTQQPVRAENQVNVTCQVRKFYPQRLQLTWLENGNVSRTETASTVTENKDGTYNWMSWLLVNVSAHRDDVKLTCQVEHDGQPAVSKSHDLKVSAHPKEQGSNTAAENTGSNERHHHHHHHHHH
T2 sequence (chain, as listed by the source limits assumed): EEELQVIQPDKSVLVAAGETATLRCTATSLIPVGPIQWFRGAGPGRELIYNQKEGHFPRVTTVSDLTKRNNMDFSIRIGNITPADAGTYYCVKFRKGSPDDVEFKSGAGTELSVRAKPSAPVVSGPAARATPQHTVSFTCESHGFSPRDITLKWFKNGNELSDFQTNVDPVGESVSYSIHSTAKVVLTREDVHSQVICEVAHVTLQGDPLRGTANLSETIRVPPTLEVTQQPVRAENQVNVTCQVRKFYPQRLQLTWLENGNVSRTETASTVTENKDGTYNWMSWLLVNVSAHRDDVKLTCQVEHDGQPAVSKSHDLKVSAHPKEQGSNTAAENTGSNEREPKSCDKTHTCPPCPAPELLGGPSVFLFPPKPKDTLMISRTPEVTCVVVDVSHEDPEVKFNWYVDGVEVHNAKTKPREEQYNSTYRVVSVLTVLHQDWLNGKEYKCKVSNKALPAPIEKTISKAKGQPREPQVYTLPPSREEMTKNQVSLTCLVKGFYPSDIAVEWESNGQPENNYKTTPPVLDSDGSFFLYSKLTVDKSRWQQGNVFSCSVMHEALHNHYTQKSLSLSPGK

B1: E1D5E1F1 (antibody, V domains shown)
VH: QVQLVQSGAEVKKPGASVKVSCKASGYTFTSFAMQWVRRAPGQRLEWMGWIIAGNGDTKYSQNFQDRVTLTRDTSANTAYMDLSGLRSEDTAVYYCARGSGFSGYGYFDKWGQGTLVTVSS
VL: DIQMTQSPSSLSASVGDRVTITCRASHSISSYLNWYQQKPGKVPKLLIYASSSLQSGVPSRFSGNGSGTDFTLIISSLQPEDFATYYCQQSHSIPLTFGGGTKVEIK
notes: Purified from a hybridoma of AceMouse mice: human heavy and light chain variable regions with mouse constant regions
In general, EC50 refers to the concentration needed to bring the measured effect to its halfway point. In general, IC50 refers to the concentration that inhibits the measured activity by half. A low value points to inhibition by little substance. Take B1: the concentration for a half-maximal effect (EC50) was 0.738 nM in [1]; 0.0715 nM in assay [2]; 0.094 nM in [3]; 0.927 nM in [6]; 0.119 nM in assay [7]; 0.63 nM in assay [8]. Moreover, the figures for the half-inhibitory concentration (IC50) in assay [4] and in assay [5] were 0.706 nM and 2.17 nM, respectively.

B2: E1H10B7-CDRV1-IgG1 (YTE) (antibody)
heavy: QVQLVQSGAEVKKPGASVKVSCKASGYTFTSYAMQWVRQAPGQRLEWMGWIIAGNADTKYSQNFQDRVTLTRDTSANTAYMDLSGLRSEDTAVYYCARGSGFSGYGYFDKWGQGTLVTVSSASTKGPSVFPLAPSSKSTSGGTAALGCLVKDYFPEPVTVSWNSGALTSGVHTFPAVLQSSGLYSLSSVVTVPSSSLGTQTYICNVNHKPSNTKVDKKVEPKSCDKTHTCPPCPAPEAQGGPSVFLFPPKPKDTLYITREPEVTCVVVDVSHEDPEVKFNWYVDGVEVHNAKTKPREEQYNSTYRVVSVLTVLHQDWLNGKEYKCQVSNKALPAPIEKTISKAKGQPREPQVYTLPPSRDELTKNQVSLTCLVKGFYPSDIAVEWESNGQPENNYKTTPPVLDSDGSFFLYSKLTVDKSRWQQGNVFSCSVMHEALHNHYTQKSLSLSPG
light: DIQMTQSPSSLSASVGDRVTITCRASHSISSYLNWYQQKPGKVPKLLIYASSSLQSGVPSRFSGSGSGTDFTLIISSLQPEDFATYYCQQSHSIPLTFGGGTKVEIKRTVAAPSVFIFPPSDEQLKSGTASVVCLLNNFYPREAKVQWKVDNALQSGNSQESVTEQDSKDSTYSLSSTLTLSKADYEKHKVYACEVTHQGLSSPVTKSFNRGEC
Usually Kd stands for the constant that tells how readily two partners part at equilibrium. A lower Kd goes with higher affinity. What is called koff is the rate constant with which the complex falls apart. Higher therefore signals fast dissociation. A word on the kon: it is the second-order rate constant of association. In the case of B2, the EC50 in [9] is 0.141 nM; in [12] it was 0.956 nM; in [15] it was 1.47 nM; in assay [18] it was 0.173 nM; in [22], 0.209 nM. For the same molecule, the IC50 amounted to 2.62 nM in assay [10] and 0.368 nM in assay [20]. Further, the binding result in [11] is on record as “no binding (tested: ~67 nM)”; in [13], “no binding”; in [21], “no binding (tested: antigen starting at 200 nM)”; in [23] it was “no binding (tested: ~67 nM)”. In addition, the Kd in assay [14] was found to be 28.8 nM; in [16] it was 553 nM; in assay [17] it was 14.6 nM; in assay [19], 129 nM. Also, the koff was 0.0146 s⁻¹ in assay [16] and 0.00188 s⁻¹ in assay [17]. For the same molecule, the kon stood at 26400 M⁻¹ s⁻¹ in assay [16] and 129000 M⁻¹ s⁻¹ in assay [17].

B3: E1H10B7-CDRV1-IgG1 (antibody)
heavy: not shown
light: DIQMTQSPSSLSASVGDRVTITCRASHSISSYLNWYQQKPGKVPKLLIYASSSLQSGVPSRFSGSGSGTDFTLIISSLQPEDFATYYCQQSHSIPLTFGGGTKVEIKRTVAAPSVFIFPPSDEQLKSGTASVVCLLNNFYPREAKVQWKVDNALQSGNSQESVTEQDSKDSTYSLSSTLTLSKADYEKHKVYACEVTHQGLSSPVTKSFNRGEC
In the case of B3, the 50% effective concentration (EC50) in assay [9] is 0.151 nM; in assay [12], 0.973 nM; in assay [15] it was 1.23 nM; in assay [18], 0.184 nM; in [22], 0.224 nM. Further, the Kd is 94.1 nM in assay [24], 376 nM in assay [16] and 8.78 nM in assay [17]. Besides, the IC50 turned out to be 2.3 nM in assay [10] and 0.347 nM in assay [20]. Besides, the binding result in assay [11] is on record as “no binding (tested: ~67 nM)”; in assay [13], “no binding”; in assay [21], “no binding (tested: antigen starting at 200 nM)”; in assay [23], “no binding (tested: ~67 nM)”. The dissociation rate constant (koff) in assay [16] stood at 0.0132 s⁻¹; in assay [17], 0.00118 s⁻¹. The figures for the association rate constant (kon) in assay [16] and in assay [17] were 35000 M⁻¹ s⁻¹ and 134000 M⁻¹ s⁻¹, respectively.

The values are drawn from patent US20250250355A1 (BIOSION, published 2025).
